In PMC6611904, “The transcription factor OsSUF4 interacts with SDG725 in promoting H3K36me3 establishment”:

B1: Hd3a-mu8 (dsDNA)
DNA 1: ACAGTTAACTAACGGCCTAAGGGGGGTATAAA
DNA 2: TTTATACCCCCCTTAGGCCGTTAGTTAACTGT
B2: RFT1-WT (dsDNA)
DNA 1: AGTATGAGTTTTGGAATCGGAAATATACCGAAC
DNA 2: GTTCGGTATATTTCCGATTCCAAAACTCATACT
B3: Os05g48810 probe (dsDNA)
DNA 1: TATATTCAATGTCGGAAATCATTCCCGTAC
DNA 2: GTACGGGAATGATTTCCGACATTGAATATA
B4: ITC 16-bp DNA (dsDNA)
DNA 1: GGGTACGGAAATGGTA
DNA 2: TACCATTTCCGTACCC
B5: Os02g08490 probe (dsDNA)
DNA 1: AGACCGTCGATTCGGAAATAAACGGGCCGG
DNA 2: CCGGCCCGTTTATTTCCGAATCGACGGTCT
B6: Os12g21784 probe (dsDNA)
DNA 1: CTTTCTCTTCGGAAATATAAATATATACCC
DNA 2: GGGTATATATTTATATTTCCGAAGAGAAAG
B7: Os04g49660 probe (dsDNA)
DNA 1: AGGACTAATTCGGAAATCTCCCCTTCCCGT
DNA 2: ACGGGAAGGGGAGATTTCCGAATTAGTCCT
B8: Os09g31486 probe (dsDNA)
DNA 1: CCACCGAAATGACGGAAATGCCCCTGGCCG
DNA 2: CGGCCAGGGGCATTTCCGTCATTTCGGTGG
B9: Os12g01760 probe (dsDNA)
DNA 1: ATCATTTTTTCGGAAATATACAAATGCTGA
DNA 2: TCAGCATTTGTATATTTCCGAAAAAATGAT
B10: Hd3a-e (Hd3a-WT) (dsDNA)
DNA 1: ACAGTTAACTAACGGTACGGAAATGGTATAAA
DNA 2: TTTATACCATTTCCGTACCGTTAGTTAACTGT
B11: Os06g06490 probe (dsDNA)
DNA 1: ATATTTTTTCGCGGAAATTCGGTCTTCACT
DNA 2: AGTGAAGACCGAATTTCCGCGAAAAAATAT

Experiments:
His-OsSUF4N = His-OsSUF4N (Oryza sativa, UniProt Q653D5 1-105); assay: EMSA; ITC: 100 mM NaCl, 20 mM Tris-HCl pH 8.0, 25 C, 2 mM protein into 0.1 mM DNA; EMSA: LightShift kit binding buffer, 5 ug protein, 0.02 uM probe, poly(dI-dC), 25 C 30 min, 5% PAGE; details: protein: recombinant; tags: His (pET32a)
OsSUF4 ZF K36A = OsSUF4 ZF K36A (Oryza sativa, UniProt Q653D5 10-100, K36A); assay: ITC; ITC: 100 mM NaCl, 20 mM Tris-HCl pH 8.0, 25 C, 2 mM protein into 0.1 mM DNA; EMSA: LightShift kit binding buffer, 5 ug protein, 0.02 uM probe, poly(dI-dC), 25 C 30 min, 5% PAGE; details: protein: recombinant; tags: pET28-SUMO; Ni column; blunt
OsSUF4 ZF K24A = OsSUF4 ZF K24A (Oryza sativa, UniProt Q653D5 10-100, K24A); assay: as above; details: protein: recombinant; tags: pET28-SUMO; Ni column; blunt
[1] = target: OsSUF4 zinc finger domain WT (Oryza sativa, UniProt Q653D5 10-100); assay: as above; details: protein: recombinant; tags: pET28-SUMO; Ni column; blunt
OsSUF4 ZF K31A = OsSUF4 ZF K31A (Oryza sativa, UniProt Q653D5 10-100, K31A); assay: as above; details: protein: recombinant; tags: pET28-SUMO; Ni column; blunt
OsSUF4 ZF K43A = OsSUF4 ZF K43A (Oryza sativa, UniProt Q653D5 10-100, K43A); assay: as above; details: protein: recombinant; tags: pET28-SUMO; Ni column; blunt
OsSUF4 ZF 4m = OsSUF4 ZF 4m (Oryza sativa, UniProt Q653D5 10-100, R18A;K33A;K36A;K43A); assay: as above; details: protein: recombinant; tags: pET28-SUMO; Ni column; blunt
OsSUF4 ZF R18A = OsSUF4 ZF R18A (Oryza sativa, UniProt Q653D5 10-100, R18A); assay: as above; details: protein: recombinant; tags: pET28-SUMO; Ni column; blunt
OsSUF4 ZF K33A = OsSUF4 ZF K33A (Oryza sativa, UniProt Q653D5 10-100, K33A); assay: as above; details: protein: recombinant; tags: pET28-SUMO; Ni column; blunt
His-AtSUF4 (full length) = His-AtSUF4 (full length) (Arabidopsis thaliana, UniProt Q9C5G0 1-367); assay: EMSA; ITC: 100 mM NaCl, 20 mM Tris-HCl pH 8.0, 25 C, 2 mM protein into 0.1 mM DNA; EMSA: LightShift kit binding buffer, 5 ug protein, 0.02 uM probe, poly(dI-dC), 25 C 30 min, 5% PAGE; details: protein: recombinant; tags: His (pET32a)
Sequence of His-AtSUF4 (full length) (Q9C5G0 whole entry): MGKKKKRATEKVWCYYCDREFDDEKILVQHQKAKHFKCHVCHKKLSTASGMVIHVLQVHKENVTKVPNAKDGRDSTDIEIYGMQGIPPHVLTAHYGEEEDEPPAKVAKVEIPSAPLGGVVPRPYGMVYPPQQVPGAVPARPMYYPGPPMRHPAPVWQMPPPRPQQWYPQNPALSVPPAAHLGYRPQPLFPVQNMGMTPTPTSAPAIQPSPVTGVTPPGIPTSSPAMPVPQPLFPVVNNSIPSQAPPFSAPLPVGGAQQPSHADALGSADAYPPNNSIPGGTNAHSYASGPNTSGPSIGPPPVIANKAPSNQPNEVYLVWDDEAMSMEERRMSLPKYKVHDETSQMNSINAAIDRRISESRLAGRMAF

Sequence of His-OsSUF4N (Q653D5 entry or part of it): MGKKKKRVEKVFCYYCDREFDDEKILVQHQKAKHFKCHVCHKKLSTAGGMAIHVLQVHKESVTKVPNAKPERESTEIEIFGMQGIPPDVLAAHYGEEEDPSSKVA
Sequence of OsSUF4 zinc finger domain WT (Q653D5 entry or part of it): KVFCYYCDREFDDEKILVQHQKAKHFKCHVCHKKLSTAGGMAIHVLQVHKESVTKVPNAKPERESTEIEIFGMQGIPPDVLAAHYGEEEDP
Sequence of OsSUF4 ZF R18A (Q653D5 entry or part of it R18A | R18A R18A): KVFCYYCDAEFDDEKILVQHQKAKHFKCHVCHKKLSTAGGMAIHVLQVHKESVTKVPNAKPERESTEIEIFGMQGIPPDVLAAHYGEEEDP
Sequence of OsSUF4 ZF K43A (Q653D5 entry or part of it K43A | K43A K43A): as the sequence (Q653D5 entry or part of it R18A | R18A R18A) above, with A9R, K34A counted along it
Sequence of OsSUF4 ZF K33A (Q653D5 entry or part of it K33A | K33A K33A): as the sequence (Q653D5 entry or part of it R18A | R18A R18A) above, with A9R, K24A counted along it
Sequence of OsSUF4 ZF K36A (Q653D5 entry or part of it K36A | K36A K36A): as the sequence (Q653D5 entry or part of it R18A | R18A R18A) above, with A9R, K27A counted along it
Sequence of OsSUF4 ZF K31A (Q653D5 entry or part of it K31A | K31A K31A): as the sequence (Q653D5 entry or part of it R18A | R18A R18A) above, with A9R, K22A counted along it
Sequence of OsSUF4 ZF 4m (Q653D5 entry or part of it R18A;K33A;K36A;K43A): as the sequence (Q653D5 entry or part of it R18A | R18A R18A) above, with K24A, K27A, K34A counted along it
Sequence of OsSUF4 ZF K24A (Q653D5 entry or part of it K24A | K24A K24A): as the sequence (Q653D5 entry or part of it R18A | R18A R18A) above, with A9R, K15A counted along it

Row | Binder | binding result (His-OsSUF4N) | further results
1 | B1 | no binding | 
2 | B2 | binds | 
3 | B3 | binds | 
4 | B4 |  | binding result (OsSUF4 ZF K36A): no binding; binding result (OsSUF4 ZF K24A): no binding; Kd [1]: 51.3 ± 3.68 µM; binding result (OsSUF4 ZF K31A): no binding; binding result (OsSUF4 ZF K43A): no binding; binding result (OsSUF4 ZF 4m): no binding; binding result (OsSUF4 ZF R18A): no binding; binding result (OsSUF4 ZF K33A): no binding
5 | B5 | binds | 
6 | B6 | binds | 
7 | B7 | binds | 
8 | B8 | binds | 
9 | B9 | binds | 
10 | B10 |  | binding result (His-AtSUF4 (full length)): no binding
11 | B11 | binds | 
